To fix the notation:
B1: library; numbered along this chain (parent)
chain: MRKPRAAVGSGHRKQAASQEGRQKHAKNNSQAKPSACDGLARQPEEVVLQASVSSYHLFRDVAEVTAFRGSLLSWYDQEKRDLPWRRRAEDEMDLDRRAYAVWVSEVMLQQTQVATVINYYTGWMQKWPTLQDLASASLEEVNQLWAGLGYYSRGRRLQEGARKVVEELGGHMPRTAETLQQLLPGVGRYTAGAIASIAFGQATGVVDGNVARVLCRVRAIGADPSSTLVSQQLWGLAQQLVDPARPGDFNQAAMELGATVCTPQRPLCSQCPVESLCRARQRVEQEQLLASGSLSGSPDVEECAPNTGQCHLCLPPSEPWDQTLGVVNFPRKASRKPPREESSATCVLEQPGALGAQILLVQRPNSGLLAGLWEFPSVTWEPSEQLQRKALLQELQRWAGPLPATHLRHLGEVVHTFSHIKLTYQVYGLALEGQTPVTTVPPGARWLTQEEFHTAAVSTAMKKVFRVYQGQQPGTCMGSKRSQVSSPCSRKKPRMGQQVLDNFFRSHISTDAHSLNSAAQ

The data set covers variants of B1. As to the kind of experiment: 8OG:A repair function score (normalized; synonymous = 0, nonsense = -1) (normalized log-likelihood score); higher = more repair activity (WT-like). To be noted: with 8OG:A DNA repair reporter (GFP) in HEK-293 MUTYH KO cells. How it is done:
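Saturation mutagenesis (NNN codon scan) of the MUTYH cDNA (521-aa nuclear isoform NM_001048174.1 / NP_001041639), stably expressed under doxycycline induction in HEK-293 MUTYH knockout cells. Cells were co-transfected with an 8OG:A-bearing GFP repair reporter plus mCherry and sorted 72 h later into GFP+ and GFP− bins, three replicates per tile. The Rosace log2 enrichment (GFP+ vs GFP−) was converted per tile to a normalized function score with synonymous variants centered at 0 and nonsense variants (codons 1-471) at -1; low-abundance variants were removed.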
As to MRKPRAAVGSGHRKQAASQEGRQKHAKNNSQAKPSACDGLARQPEEVVLQASVSSYHLFRDVAEVTAFRGSLLSWYDQEKRDLPWRRRAEDEMDLDRRAYAVWVSEVMLQQTQVATVINYYTGWMQKWPTLQDLASASLEEVNQLWAGLGYYSRGRRLQEGARKVVEELGGHMPRTAETLQQLLPGVGRMTAGAIASIAFGQATGVVDGNVARVLCRVRAIGADPSSTLVSQQLWGLAQQLVDPARPGDFNQAAMELGATVCTPQRPLCSQCPVESLCRARQRVEQEQLLASGSLSGSPDVEECAPNTGQCHLCLPPSEPWDQTLGVVNFPRKASRKPPREESSATCVLEQPGALGAQILLVQRPNSGLLAGLWEFPSVTWEPSEQLQRKALLQELQRWAGPLPATHLRHLGEVVHTFSHIKLTYQVYGLALEGQTPVTTVPPGARWLTQEEFHTAAVSTAMKKVFRVYQGQQPGTCMGSKRSQVSSPCSRKKPRMGQQVLDNFFRSHISTDAHSLNSAAQ [Y190M], the “8OG:A repair function score” value is -0.762. On to MRKPRAAVGSGHRKQAASQEGRQKHAKNNSQAKPSACDGLARQPEEVVLQASVSSYHLFRDVAEVTAFRGSLLSWYDQEKRDLPWRRRAEDEMDLDRRAYAVWVSEVMLQQTQVATVINYYTGWMQKWPTLQDLASASLEEVNQLWAGLGYYSRGRRLQEGARKVVEELGGHMPRTAETLQQLLPGVGRLTAGAIASIAFGQATGVVDGNVARVLCRVRAIGADPSSTLVSQQLWGLAQQLVDPARPGDFNQAAMELGATVCTPQRPLCSQCPVESLCRARQRVEQEQLLASGSLSGSPDVEECAPNTGQCHLCLPPSEPWDQTLGVVNFPRKASRKPPREESSATCVLEQPGALGAQILLVQRPNSGLLAGLWEFPSVTWEPSEQLQRKALLQELQRWAGPLPATHLRHLGEVVHTFSHIKLTYQVYGLALEGQTPVTTVPPGARWLTQEEFHTAAVSTAMKKVFRVYQGQQPGTCMGSKRSQVSSPCSRKKPRMGQQVLDNFFRSHISTDAHSLNSAAQ [Y190L], for which the “8OG:A repair function score” value is -0.851. Consider MRKPRAAVGSGHRKQAASQEGRQKHAKNNSQAKPSACDGLARQPEEVVLQASVSSYHLFRDVAEVTAFRGSLLSWYDQEKRDLPWRRRAEDEMDLDRRAYAVWVSEVMLQQTQVATVINYYTGWMQKWPTLQDLASASLEEVNQLWAGLGYYSRGRRLQEGARKVVEELGGHMPRTAETLQQLLPGVGRKTAGAIASIAFGQATGVVDGNVARVLCRVRAIGADPSSTLVSQQLWGLAQQLVDPARPGDFNQAAMELGATVCTPQRPLCSQCPVESLCRARQRVEQEQLLASGSLSGSPDVEECAPNTGQCHLCLPPSEPWDQTLGVVNFPRKASRKPPREESSATCVLEQPGALGAQILLVQRPNSGLLAGLWEFPSVTWEPSEQLQRKALLQELQRWAGPLPATHLRHLGEVVHTFSHIKLTYQVYGLALEGQTPVTTVPPGARWLTQEEFHTAAVSTAMKKVFRVYQGQQPGTCMGSKRSQVSSPCSRKKPRMGQQVLDNFFRSHISTDAHSLNSAAQ [Y190K], for which the “8OG:A repair function score” value was -1.27. In the case of MRKPRAAVGSGHRKQAASQEGRQKHAKNNSQAKPSACDGLARQPEEVVLQASVSSYHLFRDVAEVTAFRGSLLSWYDQEKRDLPWRRRAEDEMDLDRRAYAVWVSEVMLQQTQVATVINYYTGWMQKWPTLQDLASASLEEVNQLWAGLGYYSRGRRLQEGARKVVEELGGHMPRTAETLQQLLPGVGRPTAGAIASIAFGQATGVVDGNVARVLCRVRAIGADPSSTLVSQQLWGLAQQLVDPARPGDFNQAAMELGATVCTPQRPLCSQCPVESLCRARQRVEQEQLLASGSLSGSPDVEECAPNTGQCHLCLPPSEPWDQTLGVVNFPRKASRKPPREESSATCVLEQPGALGAQILLVQRPNSGLLAGLWEFPSVTWEPSEQLQRKALLQELQRWAGPLPATHLRHLGEVVHTFSHIKLTYQVYGLALEGQTPVTTVPPGARWLTQEEFHTAAVSTAMKKVFRVYQGQQPGTCMGSKRSQVSSPCSRKKPRMGQQVLDNFFRSHISTDAHSLNSAAQ [Y190P], the “8OG:A repair function score” value is -0.905. As for MRKPRAAVGSGHRKQAASQEGRQKHAKNNSQAKPSACDGLARQPEEVVLQASVSSYHLFRDVAEVTAFRGSLLSWYDQEKRDLPWRRRAEDEMDLDRRAYAVWVSEVMLQQTQVATVINYYTGWMQKWPTLQDLASASLEEVNQLWAGLGYYSRGRRLQEGARKVVEELGGHMPRTAETLQQLLPGVGRITAGAIASIAFGQATGVVDGNVARVLCRVRAIGADPSSTLVSQQLWGLAQQLVDPARPGDFNQAAMELGATVCTPQRPLCSQCPVESLCRARQRVEQEQLLASGSLSGSPDVEECAPNTGQCHLCLPPSEPWDQTLGVVNFPRKASRKPPREESSATCVLEQPGALGAQILLVQRPNSGLLAGLWEFPSVTWEPSEQLQRKALLQELQRWAGPLPATHLRHLGEVVHTFSHIKLTYQVYGLALEGQTPVTTVPPGARWLTQEEFHTAAVSTAMKKVFRVYQGQQPGTCMGSKRSQVSSPCSRKKPRMGQQVLDNFFRSHISTDAHSLNSAAQ [Y190I], the figure is -0.823. In the case of MRKPRAAVGSGHRKQAASQEGRQKHAKNNSQAKPSACDGLARQPEEVVLQASVSSYHLFRDVAEVTAFRGSLLSWYDQEKRDLPWRRRAEDEMDLDRRAYAVWVSEVMLQQTQVATVINYYTGWMQKWPTLQDLASASLEEVNQLWAGLGYYSRGRRLQEGARKVVEELGGHMPRTAETLQQLLPGVGRNTAGAIASIAFGQATGVVDGNVARVLCRVRAIGADPSSTLVSQQLWGLAQQLVDPARPGDFNQAAMELGATVCTPQRPLCSQCPVESLCRARQRVEQEQLLASGSLSGSPDVEECAPNTGQCHLCLPPSEPWDQTLGVVNFPRKASRKPPREESSATCVLEQPGALGAQILLVQRPNSGLLAGLWEFPSVTWEPSEQLQRKALLQELQRWAGPLPATHLRHLGEVVHTFSHIKLTYQVYGLALEGQTPVTTVPPGARWLTQEEFHTAAVSTAMKKVFRVYQGQQPGTCMGSKRSQVSSPCSRKKPRMGQQVLDNFFRSHISTDAHSLNSAAQ [Y190N], the “8OG:A repair function score” value was -0.443.
